Patent US20230133281A1 (CHROMOXYION, published 2023)

Molecular target: T1, Antigen SdW1a (free peptide) (Homo sapiens)
T1 construct: Synthetic peptide derived from DBY/DEAD; A KLH-conjugated form (SdW1b) was also used in screening; also called the antigen; 22-mer peptide
T1 peptide: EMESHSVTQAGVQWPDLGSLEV
Assay: supernatant ELISA on the antigen, hybridoma supernatant
Protocol: Screening: Hybridoma cells were grown for 10 days at which point the number of positive hybridoma colonies was determined and after a further 3 days' incubation an aliquot of antibody supernatant was taken for screening. The supernatant was assayed for reactivity to the antigens SdW1a (free peptide—SEQ ID NO. 347) and SdW1b (KLH-peptide), firstly by antigen microarray using an IgG-specific secondary antibody, followed by supernatant ELISA to confirm any positive antibody-producing clones.

B1: monoclonal antibody SdW1 RE5.B7.F9b (antibody, mouse IgG2a, V domains shown)
VH: EVKVEESGGGLVQPGGSMKISCVASGFTFKNYWMNWVRQSPEKGLEWVAEIRSKSNNNEKHYAESVKGRFTISRDDFKSSVYLQMNNLRTEDTGIYYCTGGTFDYWGQGTTLTVSS
VL: DVVVTQTPLSLPVSLGDQASISCRSSHSLVHSDGNTYLHWYLQKPGQSPKLLIYKVSNRFSGVPDRFSGSGSGTDFTLKISRVEAEDLGVYFCSQTTHVPPYTFGGGTQLEIK
notes: Tested as hybridoma culture supernatant; also called clone RE5; RE5 antibody
- binding result: binds
